According to patent US20140220107A1:

Key:
[1] = molecular target: HIV-1 subtype C C06980v0c22 gp160 DC (HIV-1 subtype C isolate C06980v0c22); assay: gp160 antigen capture ELISA, 4E10 as capture antibody; cell lysate of transfected HEK293 cells, 48 h (negative control 0.156)
[2] = molecular target: HIV-1 subtype C C06980v0c22 gp160 (HIV-1 subtype C isolate C06980v0c22); assay: as above
[3] = molecular target: HIV-1 subtype C C06838v1c48 gp160 (HIV-1 subtype C isolate C06838v1c48); assay: as above
[4] = molecular target: HIV-1 subtype C C06980v1c3 gp160 (HIV-1 subtype C isolate C06980v1c3); assay: as above
[5] = molecular target: HIV-1 Ba-L gp145 (HIV-1 Ba-L (subtype B)); assay: as above
[6] = molecular target: HIV-1 subtype C C06838v1c48 gp160 DC (HIV-1 subtype C isolate C06838v1c48); assay: as above
[7] = molecular target: HIV-1 subtype C C3728v2c6 gp160 (HIV-1 subtype C isolate C3728v2c6); assay: as above
[8] = molecular target: HIV-1 subtype C C3728v2c6 gp160 DC (HIV-1 subtype C isolate C3728v2c6); assay: as above
[9] = molecular target: HIV-1 subtype C C06980v1c3 gp160 DC (HIV-1 subtype C isolate C06980v1c3); assay: as above
[10] = molecular target: HIV-1 subtype C C06980v0c22 gp160 DC (HIV-1 subtype C isolate C06980v0c22); assay: gp160 antigen capture ELISA, 4E10 as capture antibody; media of transfected HEK293 cells, 48 h (negative control 0.123)
[11] = molecular target: HIV-1 subtype C C06980v0c22 gp160 (HIV-1 subtype C isolate C06980v0c22); assay: as above
[12] = molecular target: HIV-1 subtype C C06838v1c48 gp160 (HIV-1 subtype C isolate C06838v1c48); assay: as above
[13] = molecular target: HIV-1 subtype C C06980v1c3 gp160 (HIV-1 subtype C isolate C06980v1c3); assay: as above
[14] = molecular target: HIV-1 Ba-L gp145 (HIV-1 Ba-L (subtype B)); assay: as above
[15] = molecular target: HIV-1 subtype C C06838v1c48 gp160 DC (HIV-1 subtype C isolate C06838v1c48); assay: as above
[16] = molecular target: HIV-1 subtype C C3728v2c6 gp160 (HIV-1 subtype C isolate C3728v2c6); assay: as above
[17] = molecular target: HIV-1 subtype C C3728v2c6 gp160 DC (HIV-1 subtype C isolate C3728v2c6); assay: as above
[18] = molecular target: HIV-1 subtype C C06980v1c3 gp160 DC (HIV-1 subtype C isolate C06980v1c3); assay: as above
[19] = molecular target: HIV-1 subtype C C06980v0c22 gp160 DC (HIV-1 subtype C isolate C06980v0c22); assay: gp160 antigen capture ELISA, 2F5 as capture antibody; cell lysate of transfected HEK293 cells, 48 h (negative control 0.150)
[20] = molecular target: HIV-1 subtype C C06980v0c22 gp160 (HIV-1 subtype C isolate C06980v0c22); assay: as above
[21] = molecular target: HIV-1 subtype C C06838v1c48 gp160 (HIV-1 subtype C isolate C06838v1c48); assay: as above
[22] = molecular target: HIV-1 subtype C C06980v1c3 gp160 (HIV-1 subtype C isolate C06980v1c3); assay: as above
[23] = molecular target: HIV-1 Ba-L gp145 (HIV-1 Ba-L (subtype B)); assay: as above
[24] = molecular target: HIV-1 subtype C C06838v1c48 gp160 DC (HIV-1 subtype C isolate C06838v1c48); assay: as above
[25] = molecular target: HIV-1 subtype C C3728v2c6 gp160 (HIV-1 subtype C isolate C3728v2c6); assay: as above
[26] = molecular target: HIV-1 subtype C C3728v2c6 gp160 DC (HIV-1 subtype C isolate C3728v2c6); assay: as above
[27] = molecular target: HIV-1 subtype C C06980v1c3 gp160 DC (HIV-1 subtype C isolate C06980v1c3); assay: as above
[28] = molecular target: HIV-1 subtype C C06980v0c22 gp160 DC (HIV-1 subtype C isolate C06980v0c22); assay: gp160 antigen capture ELISA, 2F5 as capture antibody; media of transfected HEK293 cells, 48 h (negative control 0.135)
[29] = molecular target: HIV-1 subtype C C06980v0c22 gp160 (HIV-1 subtype C isolate C06980v0c22); assay: as above
[30] = molecular target: HIV-1 subtype C C06838v1c48 gp160 (HIV-1 subtype C isolate C06838v1c48); assay: as above
[31] = molecular target: HIV-1 subtype C C06980v1c3 gp160 (HIV-1 subtype C isolate C06980v1c3); assay: as above
[32] = molecular target: HIV-1 Ba-L gp145 (HIV-1 Ba-L (subtype B)); assay: as above
[33] = molecular target: HIV-1 subtype C C06838v1c48 gp160 DC (HIV-1 subtype C isolate C06838v1c48); assay: as above
[34] = molecular target: HIV-1 subtype C C3728v2c6 gp160 (HIV-1 subtype C isolate C3728v2c6); assay: as above
[35] = molecular target: HIV-1 subtype C C3728v2c6 gp160 DC (HIV-1 subtype C isolate C3728v2c6); assay: as above
[36] = molecular target: HIV-1 subtype C C06980v1c3 gp160 DC (HIV-1 subtype C isolate C06980v1c3); assay: as above

**Q.** Which OD 450 nm [1] does the source give for “4E10 human monoclonal antibody to the gp41 MPER” here?
**A.** The OD 450 nm was 2.62 OD 450 nm.

**Q.** What about the OD 450 nm [2] of the same substance?
**A.** The OD 450 nm was 2.74 OD 450 nm.

**Q.** What about the OD 450 nm [3] of the same substance?
**A.** Its OD 450 nm is 2.65 OD 450 nm.

**Q.** And the OD 450 nm [4]?
**A.** The OD 450 nm was 2.72 OD 450 nm.

**Q.** And the OD 450 nm [5]?
**A.** Its OD 450 nm is 2.55 OD 450 nm.

**Q.** What about the OD 450 nm [6] of the same substance?
**A.** Its OD 450 nm is 2.7 OD 450 nm.

**Q.** What about the OD 450 nm [7] of the same substance?
**A.** Its OD 450 nm is 2.78 OD 450 nm.

**Q.** What about the OD 450 nm [8] of the same substance?
**A.** Its OD 450 nm is 2.65 OD 450 nm.

**Q.** And the OD 450 nm [9]?
**A.** Its OD 450 nm is 2.59 OD 450 nm.

**Q.** What about the OD 450 nm [10] of the same substance?
**A.** Its OD 450 nm is 2.61 OD 450 nm.

**Q.** And the OD 450 nm [11]?
**A.** Its OD 450 nm is 2.53 OD 450 nm.

**Q.** What about the OD 450 nm [12] of the same substance?
**A.** The OD 450 nm was 0.146 OD 450 nm.

**Q.** What about the OD 450 nm [13] of the same substance?
**A.** Its OD 450 nm is 0.926 OD 450 nm.

**Q.** What about the OD 450 nm [14] of the same substance?
**A.** The OD 450 nm was 2.42 OD 450 nm.

**Q.** What about the OD 450 nm [15] of the same substance?
**A.** Its OD 450 nm is 0.162 OD 450 nm.

**Q.** What about the OD 450 nm [16] of the same substance?
**A.** The OD 450 nm was 0.589 OD 450 nm.

**Q.** And the OD 450 nm [17]?
**A.** Its OD 450 nm is 0.681 OD 450 nm.

**Q.** What about the OD 450 nm [18] of the same substance?
**A.** The OD 450 nm was 1.1 OD 450 nm.

**Q.** For “2F5 human monoclonal antibody to the gp41 MPER”, which OD 450 nm [19] is on record?
**A.** Its OD 450 nm is 1.21 OD 450 nm.

**Q.** And the OD 450 nm [20]?
**A.** Its OD 450 nm is 1.46 OD 450 nm.

**Q.** And the OD 450 nm [21]?
**A.** Its OD 450 nm is 0.53 OD 450 nm.

**Q.** What about the OD 450 nm [22] of the same substance?
**A.** Its OD 450 nm is 0.399 OD 450 nm.

**Q.** And the OD 450 nm [23]?
**A.** The OD 450 nm was 2.64 OD 450 nm.

**Q.** What about the OD 450 nm [24] of the same substance?
**A.** The OD 450 nm was 0.506 OD 450 nm.

**Q.** What about the OD 450 nm [25] of the same substance?
**A.** The OD 450 nm was 0.781 OD 450 nm.

**Q.** And the OD 450 nm [26]?
**A.** The OD 450 nm was 0.829 OD 450 nm.

**Q.** What about the OD 450 nm [27] of the same substance?
**A.** Its OD 450 nm is 0.446 OD 450 nm.

**Q.** What about the OD 450 nm [28] of the same substance?
**A.** The OD 450 nm was 0.298 OD 450 nm.

**Q.** And the OD 450 nm [29]?
**A.** Its OD 450 nm is 0.344 OD 450 nm.

**Q.** What about the OD 450 nm [30] of the same substance?
**A.** The OD 450 nm was 0.146 OD 450 nm.

**Q.** And the OD 450 nm [31]?
**A.** Its OD 450 nm is 0.2 OD 450 nm.

**Q.** What about the OD 450 nm [32] of the same substance?
**A.** Its OD 450 nm is 2.27 OD 450 nm.

**Q.** And the OD 450 nm [33]?
**A.** The OD 450 nm was 0.155 OD 450 nm.

**Q.** What about the OD 450 nm [34] of the same substance?
**A.** Its OD 450 nm is 0.198 OD 450 nm.

**Q.** And the OD 450 nm [35]?
**A.** The OD 450 nm was 0.219 OD 450 nm.

**Q.** And the OD 450 nm [36]?
**A.** The OD 450 nm was 0.179 OD 450 nm.
